No end group written: not given here. *: point of attachment. Crotonyl(E) = C/C=C/C(=O)*
Legend:
[1] = target: Taf14 YEATS domain (construct of the fluorescence assay) (yeast) (UniProt P35189); experiment: other fluorescence titration
[2] = target: T1, Taf14 YEATS domain (residues 1-137) (yeast, UniProt P35189 1-137); experiment: crystal structure
T1 sequence (looked up): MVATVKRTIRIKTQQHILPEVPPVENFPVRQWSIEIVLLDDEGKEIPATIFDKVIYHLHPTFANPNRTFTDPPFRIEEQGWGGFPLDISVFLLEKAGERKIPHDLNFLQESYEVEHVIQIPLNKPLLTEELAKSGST

[3] = target: T2, Taf14 YEATS domain, Taf14 (1-132), uniformly 15N-labeled (yeast, UniProt P35189 1-132); experiment: NMR titration
T2 sequence (looked up): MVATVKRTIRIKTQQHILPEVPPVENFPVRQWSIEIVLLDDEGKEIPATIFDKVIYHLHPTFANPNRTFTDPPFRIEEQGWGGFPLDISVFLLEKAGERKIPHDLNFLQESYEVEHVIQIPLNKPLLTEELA

Molecule: H3K9cr5-13 peptide (residues 5-13 of H3, crotonylated at lysine 9) (from UniProt P61830 6-14)
- Kd [1]: 9.5 µM

Molecule: QTARK(Crotonyl(E))STGG (peptide, UniProt P61830 6-14, looked up) [H3K9cr5-13 peptide (residues 5-13 of H3, crotonylated at lysine 9)]
- binding result [2]: binds
- binding result [3]: binds

Molecule: QTARK(Ac)STGG (peptide, UniProt P61830 6-14, looked up) [H3K9ac5-13 peptide (residues 5-13 of H3, acetylated at lysine 9)]
- binding result [3]: binds

Source: article PMC4871749 (Nature chemical biology, 2016)
